According to US20180140673A1:

Target: FGF receptor/BKL complex on HEK293 cells overexpressing human beta-klotho (BKL) (human) (UniProt Q86Z14)
Assay: cell-based or functional assay

Chain of FGF receptor/BKL complex on HEK293 cells overexpressing human beta-klotho (BKL) (human) (Q86Z14 whole entry, one chain of several): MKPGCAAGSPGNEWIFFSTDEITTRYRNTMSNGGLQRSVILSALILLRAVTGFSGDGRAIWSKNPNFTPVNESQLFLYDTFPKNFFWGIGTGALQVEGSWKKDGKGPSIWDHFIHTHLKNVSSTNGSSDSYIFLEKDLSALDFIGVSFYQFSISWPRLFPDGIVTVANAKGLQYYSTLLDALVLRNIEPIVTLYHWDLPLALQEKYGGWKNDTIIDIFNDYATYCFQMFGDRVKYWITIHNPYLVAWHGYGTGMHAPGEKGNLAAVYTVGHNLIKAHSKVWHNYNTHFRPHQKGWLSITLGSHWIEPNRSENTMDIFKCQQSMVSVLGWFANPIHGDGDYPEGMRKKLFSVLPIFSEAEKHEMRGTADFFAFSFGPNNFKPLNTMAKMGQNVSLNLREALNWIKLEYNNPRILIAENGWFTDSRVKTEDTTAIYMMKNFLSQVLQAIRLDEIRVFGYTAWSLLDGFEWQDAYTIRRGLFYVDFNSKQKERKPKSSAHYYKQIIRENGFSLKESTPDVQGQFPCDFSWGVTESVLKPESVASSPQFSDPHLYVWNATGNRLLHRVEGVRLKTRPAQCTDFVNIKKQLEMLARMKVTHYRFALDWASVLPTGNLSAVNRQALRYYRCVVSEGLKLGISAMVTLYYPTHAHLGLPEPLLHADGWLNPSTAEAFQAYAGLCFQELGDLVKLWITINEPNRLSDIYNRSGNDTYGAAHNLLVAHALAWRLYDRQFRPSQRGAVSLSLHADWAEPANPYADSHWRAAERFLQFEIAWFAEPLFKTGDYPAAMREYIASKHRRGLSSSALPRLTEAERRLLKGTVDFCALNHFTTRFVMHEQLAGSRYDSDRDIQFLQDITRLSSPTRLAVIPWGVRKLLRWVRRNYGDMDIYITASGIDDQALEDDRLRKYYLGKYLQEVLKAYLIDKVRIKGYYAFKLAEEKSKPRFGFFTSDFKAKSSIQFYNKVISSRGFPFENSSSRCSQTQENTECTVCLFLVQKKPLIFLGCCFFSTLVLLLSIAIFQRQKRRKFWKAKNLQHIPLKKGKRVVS
Chain of Ala[Gln121,Leu168,Cys175]FGF21 (Q9NSA1 other isoform, or with tags, fused parts or gaps limits assumed): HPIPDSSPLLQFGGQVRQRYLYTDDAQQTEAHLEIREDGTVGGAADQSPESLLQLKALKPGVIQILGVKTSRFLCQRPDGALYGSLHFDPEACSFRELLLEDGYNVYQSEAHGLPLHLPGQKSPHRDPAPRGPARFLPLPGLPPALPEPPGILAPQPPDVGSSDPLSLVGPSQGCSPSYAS
Chain of Ala[Gln121,Leu168,Cys170]FGF21 (Q9NSA1 other isoform, or with tags, fused parts or gaps limits assumed): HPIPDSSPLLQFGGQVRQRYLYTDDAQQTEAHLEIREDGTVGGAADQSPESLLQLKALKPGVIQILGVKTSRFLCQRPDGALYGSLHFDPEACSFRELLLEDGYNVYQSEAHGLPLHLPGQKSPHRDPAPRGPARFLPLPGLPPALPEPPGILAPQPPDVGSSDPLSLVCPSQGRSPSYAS
Chain of Ala[Gln121,Leu168,Cys173]FGF21 (Q9NSA1 other isoform, or with tags, fused parts or gaps limits assumed): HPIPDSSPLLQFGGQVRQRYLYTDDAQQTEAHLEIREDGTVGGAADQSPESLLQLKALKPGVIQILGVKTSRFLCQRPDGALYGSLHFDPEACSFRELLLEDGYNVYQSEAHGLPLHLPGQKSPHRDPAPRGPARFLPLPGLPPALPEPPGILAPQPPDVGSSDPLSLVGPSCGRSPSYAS
Chain of Ala[Gln121,Leu168,Cys174]FGF21 (Q9NSA1 other isoform, or with tags, fused parts or gaps limits assumed): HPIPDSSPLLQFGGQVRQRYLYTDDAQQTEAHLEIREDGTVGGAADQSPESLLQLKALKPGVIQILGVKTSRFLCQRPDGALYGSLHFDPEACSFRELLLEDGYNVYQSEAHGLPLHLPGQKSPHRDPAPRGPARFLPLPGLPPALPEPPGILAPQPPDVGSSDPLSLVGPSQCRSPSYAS
Chain of Ala[Gln121,Leu168,Cys169]FGF21 (Q9NSA1 other isoform, or with tags, fused parts or gaps limits assumed): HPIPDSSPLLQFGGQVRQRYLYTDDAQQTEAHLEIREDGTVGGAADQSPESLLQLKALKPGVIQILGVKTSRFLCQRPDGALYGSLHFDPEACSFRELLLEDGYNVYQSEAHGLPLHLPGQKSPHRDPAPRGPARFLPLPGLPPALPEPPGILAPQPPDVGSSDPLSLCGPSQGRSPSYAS

EC50 (0.1% HSA) (nM), pERK, HEK293/BKL cells	EC50 (nM), pERK, HEK293/BKL cells	Substance
373 nM	214 nM	S{Beta-176}-[2-[2-[[2-[2-[2-[[2-[2-[2-[[(4S)-4-carboxy-4-(15-carboxypentadecanoyl-amino)butanoyl]amino]ethoxy]ethoxy]acetyl]amino]ethoxy]ethoxy]acetyl]amino]-ethylamino]-2-oxoethyl]-Ala[Gln121,Leu168,Cys176]FGF21 (from UniProt Q9NSA1 29-209) (ligand)
4 nM	4 nM	S{Beta-174}-[2-[2-[[2-[2-[2-[[2-[2-[2-[[(4S)-4-carboxy-4-(13-carboxytridecanoyl-amino)butanoyl]amino]ethoxy]ethoxy]acetyl]amino]ethoxy]ethoxy]acetyl]amino]-ethylamino]-2-oxoethyl]-Ala[Gln121,Leu168,Cys174]FGF21 (from UniProt Q9NSA1 29-209) (ligand)
132 nM	24.7 nM	4-[10-[[4-[2-[2-[2-[2-[2-[2-[[(1S)-5-acetamido-1-carboxy-pentyl]amino]-2-oxo-ethoxy]ethoxy]ethylamino]-2-oxo-ethoxy]ethoxy]ethylamino]-4-oxo-butyl]sulfonylamino]-10-oxo-decoxy]benzoic acid-Ala[Gln121,Leu168,Cys181]FGF21 (from UniProt Q9NSA1 29-208) (ligand)
4 nM	3.2 nM	4-[10-[[4-[2-[2-[2-[2-[2-[2-[[(1S)-5-acetamido-1-carboxy-pentyl]amino]-2-oxo-ethoxy]ethoxy]ethylamino]-2-oxo-ethoxy]ethoxy]ethylamino]-4-oxo-butyl]sulfonylamino]-10-oxo-decoxy]benzoic acid]-Ala[Gln121,Leu168,Cys180]FGF21 (from UniProt Q9NSA1 29-209) (ligand)
14 nM	4 nM	18-[[4-[[(1S)-4-[2-[2-[2-[2-[2-[2-[[(1S)-5-[(2-acetamido]-1-carboxy-pentyl]amino]-2-oxo-ethoxy]ethoxy]ethylamino]-2-oxo-ethoxy]ethoxy]ethylamino]-1-carboxy-4-oxo-butyl]carbamoyl]cyclohexyl]methylamino]-18-oxo-octadecanoic acid-Ala[Gln121,Leu168,Cys180]FGF21 (from UniProt Q9NSA1 29-209) (ligand)
7.1 nM	4.2 nM	(2S)-6-acetamido-2-[[2-[2-[2-[[2-[2-[2-[[(4S)-4-carboxy-4-(16-sulfohexadecanoylamino)butanoyl]amino]ethoxy]ethoxy]acetyl]amino]ethoxy]ethoxy]acetyl]amino]hexadecanoic acid-Ala[Gln121,Leu168,Cys180]FGF21 (from UniProt Q9NSA1 29-209) (ligand)
4 nM	2 nM	16-[[(1S)-4-[2-[2-[2-[2-[2-[2-(2-acetamidoethylamino)-2-oxo-ethoxy]ethoxy]ethylamino]-2-oxo-ethoxy]ethoxy]ethylamino]-1-carboxy-4-oxo-butyl]amino]-16-oxo-hexadecanoic acid-Ala[Gln121,Leu168,Cys174]FGF21 (from UniProt Q9NSA1 29-209) (ligand)
	7 nM	Ala[Gln121,Leu168,Cys170]FGF21 (from UniProt Q9NSA1 29-209) (ligand)
	4 nM	Ala[Gln121,Leu168,Cys173]FGF21 (from UniProt Q9NSA1 29-209) (ligand)
138 nM	26.4 nM	4-[10-[[(1S)-4-[2-[2-[2-[2-[2-[2-[[(1S)-5-acetamido-1-carboxy-pentyl]amino]-2-oxo-ethoxy]ethoxy]ethylamino]-2-oxo-ethoxy]ethoxy]ethylamino]-1-carboxy-4-oxo-butyl]amino]-10-oxo-decoxy]benzoic acid]-Ala[Gln121,Leu168,Cys181]FGF21 (from UniProt Q9NSA1 29-208) (ligand)
	11 nM	Ala[Gln121,Leu168,Cys175]FGF21 (from UniProt Q9NSA1 29-209) (ligand)
1 nM	1 nM	S{Beta-175}-[2-[2-[[2-[2-[2-[[2-[2-[2-[[(4S)-4-carboxy-4-(15-carboxypentadecanoyl-amino)butanoyl]amino]ethoxy]ethoxy]acetyl]amino]ethoxy]ethoxy]acetyl]amino]-ethylamino]-2-oxoethyl]-Ala[Gln121,Leu168,Cys175]FGF21 (from UniProt Q9NSA1 29-209) (ligand)
20 nM	1 nM	18-[[(1S)-4-[2-[2-[2-[2-[2-[2-(2-acetamidoethylamino)-2-oxo-ethoxy]ethoxy]ethylamino]-2-oxo-ethoxy]ethoxy]ethylamino]-1-carboxy-4-oxo-butyl]amino]-18-oxo-octadecanoic acid-Ala[Gln121,Leu168,Cys170]FGF21 (from UniProt Q9NSA1 29-209) (ligand)
2.1 nM	4 nM	16-[[4-[[(1S)-4-[2-[2-[2-[2-[2-[2-[[(1S)-5-[(2-acetamido]-1-carboxy-pentyl]amino]-2-oxo-ethoxy]ethoxy]ethylamino]-2-oxo-ethoxy]ethoxy]ethylamino]-1-carboxy-4-oxo-butyl]carbamoyl]cyclohexyl]methylamino]-16-oxo-hexadecanoic acid-Ala[Gln121,Leu168,Cys180]FGF21 (from UniProt Q9NSA1 29-209) (ligand)
65.5 nM	10.3 nM	20-[[(1S)-4-[[(1S)-4-[2-[2-[2-[2-[2-[2-[[(1S)-5-acetamido-1-carboxy-pentyl]amino]-2-oxo-ethoxy]ethoxy]ethylamino]-2-oxo-ethoxy]ethoxy]ethylamino]-1-carboxy-4-oxo-butyl]amino]-1-carboxy-4-oxo-butyl]amino]-20-oxo-icosanoic acid-Ala[Gln121,Leu168,Cys180]FGF21 (from UniProt Q9NSA1 29-209) (ligand)
4260 nM	667 nM	S{Beta-168}-[2-[2-[[2-[2-[2-[[2-[2-[2-[[(4S)-4-carboxy-4-(13-carboxytridecanoyl-amino)butanoyl]amino]ethoxy]ethoxy]acetyl]amino]ethoxy]ethoxy]acetyl]amino]-ethylamino]-2-oxoethyl]-Ala[Gln121,Cys168]FGF21 (from UniProt Q9NSA1 29-209) (ligand)
137 nM	154 nM	S{Beta-181}-[2-[2-[[2-[2-[2-[[2-[2-[2-[[(4S)-4-carboxy-4-(11-carboxyundecanoyl-amino)butanoyl]amino]ethoxy]ethoxy]acetyl]amino]ethoxy]ethoxy]acetyl]amino]-ethylamino]-2-oxoethyl]-Ala[Gln121,Leu168,Cys181]FGF21 (from UniProt Q9NSA1 29-208) (ligand)
3.4 nM	8.4 nM	12-[[(1S)-4-[2-[2-[2-[2-[2-[2-[[(1S)-5-acetamido-1-carboxy-pentyl]amino]-2-oxo-ethoxy]ethoxy]ethylamino]-2-oxo-ethoxy]ethoxy]ethylamino]-1-carboxy-4-oxo-butyl]amino]-12-oxo-dodecanoic acid-Ala[Gln121,Leu168,Cys180]FGF21 (from UniProt Q9NSA1 29-209) (ligand)
20 nM	25 nM	S{Beta-169}-[2-[2-[[2-[2-[2-[[2-[2-[2-[[(4S)-4-carboxy-4-(15-carboxypentadecanoyl-amino)butanoyl]amino]ethoxy]ethoxy]acetyl]amino]ethoxy]ethoxy]acetyl]amino]-ethylamino]-2-oxoethyl]-Ala[Gln121,Leu168,Cys169]FGF21 (from UniProt Q9NSA1 29-209) (ligand)
4.7 nM	4 nM	12-[[4-[[(1S)-4-[2-[2-[2-[2-[2-[2-(2-acetamidoethylamino)-2-oxo-ethoxy]ethoxy]ethylamino]-2-oxo-ethoxy]ethoxy]ethylamino]-1-carboxy-4-oxo-butyl]carbamoyl]cyclohexyl]methylamino]-12-oxo-dodecanoic acid-Ala[Gln121,Leu168,Cys180]FGF21 (from UniProt Q9NSA1 29-209) (ligand)
6.1 nM	7.9 nM	12-[[(1S)-4-[[(1S)-4-[2-[2-[2-[2-[2-[2-[[(1S)-5-acetamido-1-carboxy-pentyl]amino]-2-oxo-ethoxy]ethoxy]ethylamino]-2-oxo-ethoxy]ethoxy]ethylamino]-1-carboxy-4-oxo-butyl]amino]-1-carboxy-4-oxo-butyl]amino]-12-oxo-dodecanoic acid-Ala[Gln121,Leu168,Cys180]FGF21 (from UniProt Q9NSA1 29-209) (ligand)
	4 nM	Ala[Gln121,Cys167,Leu168,]FGF21 (from UniProt Q9NSA1 29-209) (ligand)
	5 nM	Ala[Gln121,Leu168,Cys174]FGF21 (from UniProt Q9NSA1 29-209) (ligand)
4 nM	3 nM	S{Beta-173}-[2-[2-[[2-[2-[2-[[2-[2-[2-[[(4S)-4-carboxy-4-(15-carboxypentadecanoyl-amino)butanoyl]amino]ethoxy]ethoxy]acetyl]amino]ethoxy]ethoxy]acetyl]amino]-ethylamino]-2-oxoethyl]-Ala[Gln121,Leu168,Cys173]FGF21 (from UniProt Q9NSA1 29-209) (ligand)
	492 nM	Ala[Gln121,Cys168]FGF21 (from UniProt Q9NSA1 29-209) (ligand)
	22 nM	Ala[Gln121,Leu168,Cys169]FGF21 (from UniProt Q9NSA1 29-209) (ligand)
